The target of one assay is T1, HPV11 VLP (HPV11, UniProt P04012 1-501).
T1 sequence: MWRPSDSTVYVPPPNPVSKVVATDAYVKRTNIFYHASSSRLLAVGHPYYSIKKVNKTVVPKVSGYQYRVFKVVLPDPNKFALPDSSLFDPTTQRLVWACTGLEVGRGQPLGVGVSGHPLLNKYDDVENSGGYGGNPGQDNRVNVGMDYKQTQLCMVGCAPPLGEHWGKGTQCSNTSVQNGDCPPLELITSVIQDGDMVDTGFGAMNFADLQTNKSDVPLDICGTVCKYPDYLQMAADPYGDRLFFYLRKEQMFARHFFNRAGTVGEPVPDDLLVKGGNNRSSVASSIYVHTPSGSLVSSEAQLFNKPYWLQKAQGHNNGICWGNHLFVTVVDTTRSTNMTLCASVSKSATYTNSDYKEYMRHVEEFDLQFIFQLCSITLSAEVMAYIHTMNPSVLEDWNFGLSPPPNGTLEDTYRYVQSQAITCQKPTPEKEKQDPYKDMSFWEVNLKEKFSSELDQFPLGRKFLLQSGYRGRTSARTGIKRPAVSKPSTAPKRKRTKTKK
Put plainly: indirect ELISA, VLP coated at 0.25 μg/ml.

In a further assay the target is T2, HPV16假病毒 (HPV16, UniProt P03101 1-505).
T2 sequence: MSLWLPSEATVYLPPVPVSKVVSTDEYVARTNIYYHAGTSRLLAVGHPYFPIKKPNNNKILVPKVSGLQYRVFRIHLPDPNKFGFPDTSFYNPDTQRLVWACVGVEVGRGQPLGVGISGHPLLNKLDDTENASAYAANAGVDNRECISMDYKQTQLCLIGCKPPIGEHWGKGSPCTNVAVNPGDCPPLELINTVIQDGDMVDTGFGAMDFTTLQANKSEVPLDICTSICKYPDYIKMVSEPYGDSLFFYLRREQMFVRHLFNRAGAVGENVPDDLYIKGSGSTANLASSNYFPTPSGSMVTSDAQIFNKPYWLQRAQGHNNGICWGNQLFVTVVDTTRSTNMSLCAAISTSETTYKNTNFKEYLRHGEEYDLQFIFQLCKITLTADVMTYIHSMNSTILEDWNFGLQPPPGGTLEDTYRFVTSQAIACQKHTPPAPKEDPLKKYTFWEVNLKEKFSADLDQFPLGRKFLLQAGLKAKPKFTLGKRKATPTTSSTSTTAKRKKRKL
Put plainly: cell-based or functional assay.

We go through one molecule from patent publication CN114276439A (YUDOLONG SUZHOU MEDICAL SCIENCE AND TECH LIMITED COMPANY, dated 2022).

B1: 单克隆抗体50A11 (antibody, V domains shown)
VH: DVQLQESGPGLVKPSQSLSLTCTVTGYSITSYHAWNWIRQFPGNKLEWMAYINYSGKTSYNPSLKSRISITRDTSKNQFLLQLNSVTTEDTATYYCARVDWEGNYFDYWGQGTTVTVSS
VL: DVLMTQTPLSLPVSLGDQASISCRSSQSILHSNGNTYLQWYLQKPGQSPNLLIYKVSNRFSGVPDRFSGSGSGTDFTLKISRVEAEDLGVYYCFQGSHVPPTFGGGTKLEIKR
notes: constant regions are not
With B1, in the assay with HPV11 VLP, the binding result is given as “no binding”. In the assay with HPV16假病毒, this molecule yielded an HPV16假病毒中和反应IC50 of 1.35 ng/mL.
